# Laboratory results taken from the supplement of paper PMC9170038.
# Experiments:
# [1] = tested on: K4 kissing-loop RNA reporter; experiment: apparent KD of K4 kissing-loop reporter; higher = weaker reporter binding; conditions: Eterna round: R107;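 note: bound reporter read as fluorescence of individual clusters on recovered sequencing chips by microscopy, with normalized cluster intensities fitted with a binding model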
# Method: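 RNA-MaP round R107: designed RNA switches with theophylline, tryptophan, arginine or FMN aptamers are transcribed on-chip within common flanks. They are titrated with a labelled K4 kissing-loop RNA reporter in RNA-MaP buffer (100 mM Tris pH 7.5, 80 mM KCl, 4 mM MgCl2), without ligand or with the indicated ligand. Median apparent KD per design.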
# [2] = tested on: MS2 coat protein; experiment: apparent KD of MS2 coat protein; designed switch direction (-1 OFF switch, 1 ON switch): -1; higher = weaker reporter binding
# In short: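 For each design, the apparent KD is the median over clusters of curves fitted to normalised cluster fluorescence. Clusters held RNA switches with common flanks, transcribed on Illumina chips by stalled E. coli RNA polymerase. These were titrated with SNAP-549-labelled MS2 coat protein, doubling from 0.7 or 1.5 nM to 3 µM, without input, with 200 uM small-molecule ligand, or with an oligonucleotide input.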
# [3] = input ligand: theophylline 20 uM
# [4] = input ligand: tryptophan 2.4 mM
# [5] = Eterna round: R95, input ligand: FMN 200 uM
# [6] = Eterna round: R95, input ligand: microRNA oligo, concentration not stated
# [7] = Eterna round: R95, input ligand: none
# [8] = input ligand: microRNA oligo, concentration not stated
Sequence,apparent KD of K4 kissing-loop reporter ([1]; input ligand: FMN 200 uM) [nM],apparent KD of K4 kissing-loop reporter ([1]; input ligand: arginine 13.2 mM) [nM],apparent KD of K4 kissing-loop reporter ([1]; input ligand: none) [nM],"apparent KD of K4 kissing-loop reporter [1, 3] [nM]","apparent KD of K4 kissing-loop reporter [1, 4] [nM]","apparent KD of MS2 coat protein [2, 6] [nM]",further results
AAGAGUUGACGAAAAGUCAACUCACGAGAAGGAGCGCACGAAAGUGCAGGUAGGUCGCUCAGUCCAGUGAUGUUGGAACAUAAAA [#OpenEnded 7],66.2,114,96.1,110,73.3,,
AGCAGUCACUCGAAAAACCAUCGAAGAUGGCGAGGACCGGUACGGCCGCCACUCGGAGUGAUGUUCCGAAGACUGCAAAAUAAAA [#SwitchBubble 15],350,438,368,313,435,,
AGACUACCACACUGUCAAUAGACAGUGUACUAGGAUAUGCUGAUAAGCAGAAGGAGUGAUGUUCCAAGGUAGUCAAUAAAAUAAU [FmnAX 13 U28+A66],393,213,206,291,206,,
CUCACAGUGAUGUUGUGGGCCGAGAGUGAUACCAGCCGUAUUUGUGGCCCUUGGCAGCGCAGAACCAGUGAUGUUGGUUACUUGG [Same State Theophylline A GF 23],229,286,271,277,238,,
UUUGCAAAGUCGGCCGCCACUCCGGGCCCUAUAAAUGGGCGCAGUGAUGUUGCGGCUAGGCCUCUGAGGACCGGGACUUUGUAAA [Inusleve],151,52.1,52.3,77.2,179,,
GGAUAGGAUAGAGGAUAUGGUUUAUGCAAGAAUAACUUAUCGUGUAAAUCCAUAGGGAGUGAUGUUCCAGAAGGCUGUCCUAUCG [MatMod 12 - Jieux - Exclusion - FMN B],335,201,239,246,173,,
CUAUGGAAACAUAGUAAUCGGGAAACCGAUACCAGUAUGGAAACAUACCCUUGGCAGCGGAAUGAUUAAACGGAGUGAUGUUCCG [Theophylline A K4 17],354,243,285,237,261,,
UGUACCGAGUCAGGAUAUGGCGUCGAAAGACGAAACCAGUGAUGUUGGAAUCGAUCGAAAGAUCGUCCAGAAGGGACUUGGUACU [FmnBS 21 #SwitchBubble #StaticStem #DoubleMagnetSystem],204,382,377,349,359,,
"AGACUCAUUGUGAGGAUAUCGGGUCAACGAGACUACGAGAAGGCACAUGAGGAUCACCCAUGUAGCCACGGCUA [Eternabot (L2) Solution 95] (Eterna round: R97, puzzle: Brourd's mod of Exclusion 4)",,,,,,,apparent KD of MS2 coat protein ([2]; input ligand: FMN 200 uM): 94.8 nM; apparent KD of MS2 coat protein ([2]; input ligand: none): 240 nM
"AAAUAACAAGCGAGAUCCUACAUGAGGAUCACCCAUGUGCUCGUCUUAAGAAGUACUAUCACGAAAGUGAUAGUACA [Mat - Sensor v3 - turn-off var 1 - Eli Mod - D68] (puzzle: Sensor v3, turn-off variant 1)",,,,,,66,"apparent KD of MS2 coat protein [2, 5]: 17.6 nM; apparent KD of MS2 coat protein [2, 7]: 14.7 nM"
"CCAGACGUUGUAGGAUAUCUGAAAGGAAGUGUAAGAGAAGGAUAGUGUCUGUAAAACAUGAGGAUCACCCAUGUGGGCGCAUCC [PowerStrip EXNG 1.30] (Eterna round: R96, puzzle: Exclusion NG 1)",,,,,,,"apparent KD of MS2 coat protein [2, 8]: 16.7 nM"
"CCUGUGCUAUAGGAUAUGGCUUAGCAAUAUGCGCCAGAAGGAUAGACAUGAGGAUCACCCAUGUACGACGAAGC [Eternabot (L2) Solution 65] (Eterna round: R97, puzzle: Exclusion 6)",,,,,,,apparent KD of MS2 coat protein ([2]; input ligand: FMN 200 uM): 35.9 nM; apparent KD of MS2 coat protein ([2]; input ligand: none): 24.3 nM
GGAAAACAUGAGGAUCACCCAUGUAAGGAUAUGCAAAAGGAUAUAGAAGGAAAAAUAAGCAGAAGGUACAAAGG [salish99-ex1_r3_097] (puzzle: Exclusion 1),,,,,,42.5,"apparent KD of MS2 coat protein [2, 5]: 50.9 nM; apparent KD of MS2 coat protein [2, 7]: 43.5 nM"
"CUGUACUGAGGAUAUACAUGAGGAUCACCCAUGUGUCCUGGCUAGGAAACUAGCAAAGGUAGAAGGCAGUACAG [Mat - Exclusion 3 - Eli Mod - D54] (Eterna round: R97, puzzle: Exclusion 3)",,,,,,,apparent KD of MS2 coat protein ([2]; input ligand: FMN 200 uM): 150 nM; apparent KD of MS2 coat protein ([2]; input ligand: none): 18.8 nM
"CCUGAGGUUUGGUAGAAAACAUGAGGAUCACCCAUGUAUGUGCAGGAUAUCGACCGGCUCGCUGCCGAGAAGGGCAUCUACAUA [Eternabot solution 31] (Eterna round: R96, puzzle: Exclusion NG 3)",,,,,,,"apparent KD of MS2 coat protein ([2]; input ligand: FMN 200 uM): 45.4 nM; apparent KD of MS2 coat protein [2, 8]: 24.8 nM; apparent KD of MS2 coat protein ([2]; input ligand: none): 36.9 nM"
UAAAACCUAGGAUAUACAUGAGGAUCACCCAUGUUCGAAGGAGCCCAAGUGACUUCUAGUAGAAGGAGGGCGAA [Aratisedso] (puzzle: Exclusion 3),,,,,,18.8,
"GCGCAAACGCCAAAAGGCGAAACAACAUGAGGAUCACCCAUGUAGGAUAUCGAUUGCUUUGCAGUCGAGAAGGGCAUAAUGCGC [JL ENG3 3.80 Mod 4] (Eterna round: R96, puzzle: Exclusion NG 3)",,,,,,,"apparent KD of MS2 coat protein ([2]; input ligand: FMN 200 uM): 15.4 nM; apparent KD of MS2 coat protein [2, 8]: 13 nM; apparent KD of MS2 coat protein ([2]; input ligand: none): 16.6 nM"
"AAUAACAAGCAGGUCCUAAACAUGAGGAUCACCCAUGUGCUCGUCUUGUAAAGUACUAUCACGAAAGUGAUAGUACA [Sensor 3, v1 - 60] (puzzle: Sensor v3, turn-off variant 1)",,,,,,297,"apparent KD of MS2 coat protein [2, 5]: 26.8 nM; apparent KD of MS2 coat protein [2, 7]: 28.3 nM"
CAGUACUGAGGAUAUACAUGAGGAUCACCCAUGUGUCCCUGCUAGGAAACUAGCAAAAGUAGAAGGCAGUACUG [Fiskers Ex 3 828 mod 3] (puzzle: Exclusion 3),,,,,,21.3,"apparent KD of MS2 coat protein [2, 5]: 298 nM; apparent KD of MS2 coat protein [2, 7]: 21.2 nM"
CCGCAUAAGCAGGAUAUCGUAUCGGAGACGAUACGAGAAGGGUUAACAUGAGGAUCACCCAUGUUCCUUAACGG [Mat - Exclusion 6 - Eli Mod - D99] (puzzle: Exclusion 6),,,,,,14.1,"apparent KD of MS2 coat protein [2, 5]: 19.7 nM; apparent KD of MS2 coat protein [2, 7]: 18.1 nM"
AGUAACAGAGGAUAUACUGUUUUAUGUGUUUGUUAUUUUAAACAUGAGGAUCACCCAUGUAGAAGGCUGAAUGA [JMF 99] (puzzle: Exclusion 2),,,,,,24.7,
GGUGCGUAUGUGAGGAUAUGCUGGUCCUUGGAUCGGCAGAAGGUACAUGAGGAUCACCCAUGUGGUGUCGUUCU [salish99_Bmod_ex4_105] (puzzle: Brourd's mod of Exclusion 4),,,,,,232,
